Measured values taken from article PMC6742747, “A Unique Homo-Hexameric Structure of 2-Aminomuconate Deaminase in the Bacterium Pseudomonas species AP–3” (Frontiers in Microbiology, 2019).
Where a chain is given by its changes, count along the chain named. Numbers in names are those of the source.

B1: 2-aminomuconate deaminase (AmnE) from Pseudomonas sp. AP-3, wild type (enzyme, UniProt Q9KWS2 1-142, looked up)
chain: MVSKADNSAKLVEGKAKPMGSFPHVKRAGDFLFVSGTSSRRPDNTFVGAEPDDTGRPRPNIELQTREVISNIRDILQSVGADLGDVVEVCSYLVNMNDFAAYNKVYAEFFDATGPARTTVAVHQLPHPQLVIEIKVVAYKPL
notes: 2-aminomuconate deaminase AmnE, Pseudomonas sp; AP-3; protomer of 142 residues; Hexamer made of two trimers, by crystal structure, SEC and cross-linking; the database entry may name the gene amnD; After thrombin cleavage a few vector residues may remain at the N-terminus (surmised); also called wild-type AmnE; source: E. coli BL21 (DE3) pLysS, purified (Ni-NTA, Resource Q, Superdex 75); not …
B2: AmnE P126A (enzyme, Pseudomonas sp. AP-3, UniProt Q9KWS2 1-142, looked up)
chain: B1 chain with P126A
notes: 2-aminomuconate deaminase AmnE, Pseudomonas sp; AP-3, as m1 with P126A; The purification, including tag cleavage, is described once for the wild type and the mutants together; Hexamer by SEC; also called mutant AmnE P126A; source: E. coli BL21 (DE3) pLysS, purified (Ni-NTA, Resource Q, Superdex 75); not shown: His6, N-terminal, cleaved
B3: AmnEΔ49–59 (enzyme, Pseudomonas sp. AP-3, UniProt Q9KWS2 1-142, looked up)
chain: MVSKADNSAKLVEGKAKPMGSFPHVKRAGDFLFVSGTSSRRPDNTFVGNIELQTREVISNIRDILQSVGADLGDVVEVCSYLVNMNDFAAYNKVYAEFFDATGPARTTVAVHQLPHPQLVIEIKVVAYKPL
notes: 2-aminomuconate deaminase AmnE, Pseudomonas sp; AP-3, as m1 with residues Ala49-Pro59 of loop Lp2 deleted; The purification, including tag cleavage, is described once for the wild type and the mutants together; Trimer by SEC; also called AmnEΔLp2 (residues Ala49–Pro59); truncated mutant AmnEΔ49–59; source: E. coli BL21 (DE3) pLysS, purified (Ni-NTA, Resource Q, Superdex 75); not shown: His6, …
B4: AmnE R56A (enzyme, Pseudomonas sp. AP-3, UniProt Q9KWS2 1-142, looked up)
chain: B1 chain with R56A
notes: 2-aminomuconate deaminase AmnE, Pseudomonas sp; AP-3, as m1 with R56A; The purification, including tag cleavage, is described once for the wild type and the mutants together; Trimer by SEC; also called single mutant of AmnE R56A; source: E. coli BL21 (DE3) pLysS, purified (Ni-NTA, Resource Q, Superdex 75); not shown: His6, N-terminal, cleaved

Biological target: the molecule itself
Test: SEC; analytic Superdex 200 10/300 GL; 1 mg/ml; 50 mM HEPES, 150 mM NaCl, 1 mM DTT, 1 mM EDTA, 5% glycerol, pH 8.0; 0.3 ml/min, 16°C; mass calculated from the elution volume

Protein | stoichiometry N
B1 | 6
B2 | 6
B3 | 3
B4 | 3
